Our source for the binding result and binding signal values is US11472855, “RNA-binding protein” (Panitch Schwarze Belisario & Nadel LLP).

Settings in all cases: label: Alexa680 at 5' and 3'
Data set [1] has as its target T1, hPUF_MT(R8_N12S, R3→R5, R4→R6) (R8 repeat N12S).
T1 chain: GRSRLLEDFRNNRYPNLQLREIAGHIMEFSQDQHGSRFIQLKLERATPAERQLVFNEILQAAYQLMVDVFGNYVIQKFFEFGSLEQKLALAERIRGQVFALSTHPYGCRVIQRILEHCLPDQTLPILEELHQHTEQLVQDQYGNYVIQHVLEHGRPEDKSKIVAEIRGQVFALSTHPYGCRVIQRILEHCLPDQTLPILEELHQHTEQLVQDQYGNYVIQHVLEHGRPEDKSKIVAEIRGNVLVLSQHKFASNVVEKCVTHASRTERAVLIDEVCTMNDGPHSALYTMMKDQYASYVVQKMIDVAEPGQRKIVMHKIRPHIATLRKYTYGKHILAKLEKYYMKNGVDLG
The data set is described as follows: EMSA; no binding. In general terms: Mobility shift assays separate free from complexed probe on a gel.

Data set [2] addresses T2, hPUF_MT(R8_N12C, R3→R5, R4→R6) (R8 repeat N12C).
T2 chain: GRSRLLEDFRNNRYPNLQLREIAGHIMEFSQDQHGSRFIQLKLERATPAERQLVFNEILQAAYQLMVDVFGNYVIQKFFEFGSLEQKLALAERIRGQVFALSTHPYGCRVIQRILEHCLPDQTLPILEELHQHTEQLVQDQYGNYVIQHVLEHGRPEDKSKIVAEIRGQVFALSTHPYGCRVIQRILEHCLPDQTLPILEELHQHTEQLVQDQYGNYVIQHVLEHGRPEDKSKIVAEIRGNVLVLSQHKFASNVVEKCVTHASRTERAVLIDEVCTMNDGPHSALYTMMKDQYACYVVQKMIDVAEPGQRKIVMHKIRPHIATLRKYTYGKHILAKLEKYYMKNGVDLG
The data set is described as follows: EMSA; no binding.

The target in a further data set is T3, hPUF_MT(R8→R5) (UniProt Q14671 SEQ:1-349).
T3 chain: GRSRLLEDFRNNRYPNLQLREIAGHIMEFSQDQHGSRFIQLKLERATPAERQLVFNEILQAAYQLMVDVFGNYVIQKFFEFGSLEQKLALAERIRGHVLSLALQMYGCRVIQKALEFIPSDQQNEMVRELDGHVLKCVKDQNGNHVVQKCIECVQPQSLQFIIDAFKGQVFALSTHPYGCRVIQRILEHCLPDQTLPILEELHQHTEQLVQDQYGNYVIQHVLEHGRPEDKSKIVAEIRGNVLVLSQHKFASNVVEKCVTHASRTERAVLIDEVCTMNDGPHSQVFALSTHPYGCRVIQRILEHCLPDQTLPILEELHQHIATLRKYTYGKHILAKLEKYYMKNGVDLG
The data set is described as follows: EMSA; substantially no binding.

For data set [3], the target named is T4, hPUF_MT(R3→R5, R4→R6).
T4 chain: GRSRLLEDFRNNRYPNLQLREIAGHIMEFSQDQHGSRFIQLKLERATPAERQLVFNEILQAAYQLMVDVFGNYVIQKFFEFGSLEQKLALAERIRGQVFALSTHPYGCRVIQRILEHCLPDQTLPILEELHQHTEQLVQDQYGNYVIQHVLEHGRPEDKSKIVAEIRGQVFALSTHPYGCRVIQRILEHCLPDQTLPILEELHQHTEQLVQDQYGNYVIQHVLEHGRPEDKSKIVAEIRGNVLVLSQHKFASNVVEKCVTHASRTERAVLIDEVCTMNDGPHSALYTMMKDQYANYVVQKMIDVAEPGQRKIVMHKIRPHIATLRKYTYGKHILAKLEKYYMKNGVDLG
Kind of data set: EMSA; binds U exclusively at R8 position.

Data set [4] concerns the target T5, hPUF_MT(1-2-6-5-6-5-6-7-8).
T5 chain: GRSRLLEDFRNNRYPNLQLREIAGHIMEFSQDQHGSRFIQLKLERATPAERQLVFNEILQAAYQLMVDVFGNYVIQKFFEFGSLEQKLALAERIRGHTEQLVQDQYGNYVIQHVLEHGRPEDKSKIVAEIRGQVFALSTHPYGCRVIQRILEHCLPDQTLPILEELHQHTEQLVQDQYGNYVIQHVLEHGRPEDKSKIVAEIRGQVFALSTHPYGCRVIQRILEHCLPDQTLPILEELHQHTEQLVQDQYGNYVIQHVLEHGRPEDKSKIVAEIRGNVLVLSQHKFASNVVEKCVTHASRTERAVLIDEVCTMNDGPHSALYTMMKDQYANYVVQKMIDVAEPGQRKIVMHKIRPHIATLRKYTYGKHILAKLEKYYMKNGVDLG
The data set is described as follows: EMSA.

Data set [5] has as its target T4, hPUF_MT(R3→R5, R4→R6). Kind of data set: EMSA; U=C>A>G at R1 position; backbone printed as R4→R5.
In data set [6] the target is T6, hPUF_MT(R1_S12N, R3→R5, R4→R6) (R1 repeat S12N).
T6 chain: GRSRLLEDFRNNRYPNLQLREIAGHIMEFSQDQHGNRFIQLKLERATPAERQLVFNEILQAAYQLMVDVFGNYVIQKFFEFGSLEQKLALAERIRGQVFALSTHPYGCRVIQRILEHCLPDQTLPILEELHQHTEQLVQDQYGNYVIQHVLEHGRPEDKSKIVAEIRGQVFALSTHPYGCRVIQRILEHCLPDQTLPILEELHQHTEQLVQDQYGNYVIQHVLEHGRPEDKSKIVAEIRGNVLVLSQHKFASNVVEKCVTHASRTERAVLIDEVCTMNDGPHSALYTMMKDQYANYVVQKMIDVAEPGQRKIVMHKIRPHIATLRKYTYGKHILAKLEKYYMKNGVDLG
Kind of data set: EMSA; U>C>>G=A.

In data set [7] the target is T7, hPUF_MT(1-2-5-6-5-6-6-7-8).
T7 chain: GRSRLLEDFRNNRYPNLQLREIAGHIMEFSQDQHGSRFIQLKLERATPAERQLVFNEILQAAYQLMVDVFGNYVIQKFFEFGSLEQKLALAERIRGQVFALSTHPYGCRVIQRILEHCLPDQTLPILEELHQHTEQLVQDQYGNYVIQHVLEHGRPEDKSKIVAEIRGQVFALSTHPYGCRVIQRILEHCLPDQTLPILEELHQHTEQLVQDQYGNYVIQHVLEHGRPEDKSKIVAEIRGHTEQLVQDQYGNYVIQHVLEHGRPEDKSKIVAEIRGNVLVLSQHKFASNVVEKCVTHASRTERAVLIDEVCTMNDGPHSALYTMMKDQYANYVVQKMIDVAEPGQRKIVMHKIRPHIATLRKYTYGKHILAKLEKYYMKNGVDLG
The data set is described as follows: EMSA.

In data set [8] the target is T8, hPUF_MT(R1_Q16E, R3→R5, R4→R6) (R1 repeat Q16E).
T8 chain: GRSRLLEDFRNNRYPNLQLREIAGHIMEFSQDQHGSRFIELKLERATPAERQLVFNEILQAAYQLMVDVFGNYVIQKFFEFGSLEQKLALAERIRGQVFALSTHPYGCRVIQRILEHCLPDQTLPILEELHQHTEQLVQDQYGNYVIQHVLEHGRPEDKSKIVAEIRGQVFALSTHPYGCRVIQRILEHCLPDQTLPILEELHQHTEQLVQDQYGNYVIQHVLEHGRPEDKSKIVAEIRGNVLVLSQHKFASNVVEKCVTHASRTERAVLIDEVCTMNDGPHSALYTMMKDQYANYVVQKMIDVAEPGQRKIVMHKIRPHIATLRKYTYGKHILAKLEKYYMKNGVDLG
The data set is described as follows: EMSA; G>>U=C.

Data set [9] concerns the target T9, hPUF_MT(1-2-5-5-6-5-6-7-8).
T9 chain: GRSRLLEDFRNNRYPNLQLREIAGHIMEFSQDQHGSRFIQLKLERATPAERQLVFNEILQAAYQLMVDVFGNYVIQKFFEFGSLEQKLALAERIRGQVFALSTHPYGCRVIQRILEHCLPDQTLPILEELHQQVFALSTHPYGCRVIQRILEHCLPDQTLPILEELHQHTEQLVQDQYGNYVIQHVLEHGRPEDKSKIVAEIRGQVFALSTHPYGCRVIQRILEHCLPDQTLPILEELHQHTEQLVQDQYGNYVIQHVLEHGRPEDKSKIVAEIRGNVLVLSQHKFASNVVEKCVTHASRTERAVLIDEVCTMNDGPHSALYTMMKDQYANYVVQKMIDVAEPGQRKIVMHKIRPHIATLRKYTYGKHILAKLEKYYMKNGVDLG
The data set is described as follows: EMSA.

Data set [10] concerns the target T4, hPUF_MT(R3→R5, R4→R6). Kind of data set: EMSA; U=C>A>G at R1 position.
In data set [11] the target is T10, hPUF_MT(R1_Q16R, R3→R5, R4→R6) (R1 repeat Q16R).
T10 chain: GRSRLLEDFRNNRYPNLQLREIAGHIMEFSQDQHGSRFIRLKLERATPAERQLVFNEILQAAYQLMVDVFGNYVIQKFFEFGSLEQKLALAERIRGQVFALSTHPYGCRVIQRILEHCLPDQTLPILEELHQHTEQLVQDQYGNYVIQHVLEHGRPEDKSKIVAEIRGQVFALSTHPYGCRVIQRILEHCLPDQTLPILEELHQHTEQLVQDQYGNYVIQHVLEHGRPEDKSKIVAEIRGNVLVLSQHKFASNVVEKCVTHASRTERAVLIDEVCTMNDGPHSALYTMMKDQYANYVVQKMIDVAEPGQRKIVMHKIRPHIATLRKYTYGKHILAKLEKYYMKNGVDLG
The data set is described as follows: EMSA; C>U>>G>A; printed as Q16E (C recognition).

The target in data set [12] is T11, hPUF_MT(R7_E16R, R3→R5, R4→R6) (R7 repeat E16R).
T11 chain: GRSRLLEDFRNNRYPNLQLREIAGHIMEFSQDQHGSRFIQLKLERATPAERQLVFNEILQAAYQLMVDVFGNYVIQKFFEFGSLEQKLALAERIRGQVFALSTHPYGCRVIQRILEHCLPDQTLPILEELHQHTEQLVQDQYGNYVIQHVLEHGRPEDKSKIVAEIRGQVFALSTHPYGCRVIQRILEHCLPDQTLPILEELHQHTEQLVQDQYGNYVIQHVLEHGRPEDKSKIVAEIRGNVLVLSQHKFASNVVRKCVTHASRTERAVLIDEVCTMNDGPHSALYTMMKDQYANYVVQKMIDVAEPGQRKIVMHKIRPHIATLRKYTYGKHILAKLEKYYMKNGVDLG
Kind of data set: EMSA; binds C and U.

In data set [13] the target is T12, hPUF_MT(R7_S12C,E16Q, R3→R5, R4→R6) (R7 repeat S12C,E16Q).
T12 chain: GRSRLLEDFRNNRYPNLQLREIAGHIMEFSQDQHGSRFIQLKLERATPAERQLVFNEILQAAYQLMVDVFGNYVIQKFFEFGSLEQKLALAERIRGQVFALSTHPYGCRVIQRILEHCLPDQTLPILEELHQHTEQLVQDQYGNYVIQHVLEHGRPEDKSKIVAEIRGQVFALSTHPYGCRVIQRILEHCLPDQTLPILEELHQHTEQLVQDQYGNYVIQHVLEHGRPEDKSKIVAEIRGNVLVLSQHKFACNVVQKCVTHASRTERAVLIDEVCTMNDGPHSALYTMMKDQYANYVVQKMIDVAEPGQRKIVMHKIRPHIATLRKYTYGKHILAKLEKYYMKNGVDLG
Kind of data set: EMSA; U>C.

For data set [14], the target named is T13, hPUF_MT(R7_S12N,E16Q, R3→R5, R4→R6) (R7 repeat S12N,E16Q).
T13 chain: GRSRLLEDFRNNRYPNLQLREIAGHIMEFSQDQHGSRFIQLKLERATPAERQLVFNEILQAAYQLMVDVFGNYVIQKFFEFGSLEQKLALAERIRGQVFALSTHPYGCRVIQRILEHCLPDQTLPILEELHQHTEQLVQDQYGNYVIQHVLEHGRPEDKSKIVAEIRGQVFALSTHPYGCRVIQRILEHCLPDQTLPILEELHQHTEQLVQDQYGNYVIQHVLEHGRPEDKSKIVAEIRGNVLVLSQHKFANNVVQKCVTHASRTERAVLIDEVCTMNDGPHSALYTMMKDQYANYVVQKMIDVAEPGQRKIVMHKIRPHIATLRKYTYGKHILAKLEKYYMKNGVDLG
Kind of data set: EMSA; binds U exclusively.

Data set [15] concerns the target T4, hPUF_MT(R3→R5, R4→R6). The data set is described as follows: EMSA; binds G exclusively at R7 position.

As to CCAGAAUAGUAUAUAUUCG (ssRNA) [OTS-1825], the binding result in [1] is reported as “no binding”; in data set [2] it was “no binding”; with hPUF_MT(R8→R5), “no binding”; in the data set with hPUF_MT(R3→R5, R4→R6) [3], “no binding”.

As to CCAGAAUUGUAUAUUAUUCG (ssRNA) [OTS-2080], the binding signal in data set [4] is ~3 fold of WT.

With CCAGAAUUGUAUAUUUUCG (ssRNA) [OTS-2022], the binding result with hPUF_MT(R3→R5, R4→R6) [5] is given as “binds”; in data set [6] it was “binds”.

Turning to CCAGAAUUGUUAUAUAUUCG (ssRNA) [OTS-2082], the binding signal in [7] is ~3 fold of WT.

CCAGAAUUGUAUAUGUUCG (ssRNA) [OTS-2020]: the binding result in [8] was “binds”.

For the molecule CCAGAAUUGUAUAAUAUUCG (ssRNA) [OTS-2081], the binding signal in data set [9] is ~3 fold of WT.

Regarding CCAGAAUUGUAUAUCUUCG (ssRNA) [OTS-2021], the binding result is recorded as “binds” in the data set with hPUF_MT(R3→R5, R4→R6) [10] and “binds” in [11].

As to CCAGAAUUUUAUAUAUUCG (ssRNA) [OTS-2032], the binding result in [12] is “binds”; in data set [13] it was “binds”; in data set [14], “binds”; in the data set with hPUF_MT(R3→R5, R4→R6) [15], “no binding”.
